This note sets out measurements from the supplement of paper PMC5998384.

The test system of series [1] is HeLa Kyoto. Put plainly: solubility in G1/S (NP-40 vs SDS abundance) (log2 ratio); higher = more soluble. To be noted: cell cycle stage: G1/S.
Series [2] deals with HeLa Kyoto. Put plainly: melting temperature (median over replicates), in situ; higher = more thermally stable.
The test system of series [3] is HeLa Kyoto. Put plainly: solubility change mitosis vs G1/S (difference of NP-40 vs SDS log2 ratios) (log2 ratio difference); higher = more soluble in mitosis.
Series [4] relates to HeLa Kyoto. Put plainly: thermal stability score vs G1/S (z-score of summed log2 fold changes over temperatures); higher = more thermally stable than in G1/S.
[5] abbreviates: cell cycle stage: early G1 (4.5 h after nocodazole release).
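Throughout, for melting temperature (median over replicates), in situ: HeLa Kyoto cells synchronized by double thymidine or nocodazole block, proteins quantified by TMT10plex mass spectrometry, three independent biological replicates.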
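Throughout, for solubility change mitosis vs G1/S (difference of NP-40 vs SDS log2 ratios): synchronized HeLa Kyoto cells (double thymidine block for G1/S, nocodazole release for mitosis), protein amounts in NP-40 versus SDS lysates quantified by mass spectrometry, three biological replicates.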
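Throughout, for solubility in G1/S (NP-40 vs SDS abundance): HeLa Kyoto cells arrested at G1/S by double thymidine block, proteins quantified by TMT10plex mass spectrometry in mild NP-40 versus SDS extracts, three biological replicates.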
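Throughout, for thermal stability score vs G1/S (z-score of summed log2 fold changes over temperatures): synchronized HeLa Kyoto cells, proteins quantified by TMT10plex mass spectrometry, three biological replicates, mitosis taken 0.5 h after nocodazole release, G1/S directly after double thymidine block.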

With “MPFDFRRFDIYRKVPKDLTQPTYTGAIISICCCLFILFLFLSELTGFITTEVVNELYVDDPDKDSGGKIDVSLNISLPNLHCELVGLDIQDEMGRHEVGHIDNSMKIPLNNGAGCRFEGQFSINKVPGNFHVSTHSATAQPQNPDMTHVIHKLSFGDTLQVQNIHGAFNALGGADRLTSNPLASHDYILKIVPTVYEDKSGKQRYSYQYTVANKEYVAYSHTGRIIPAIWFRYDLSPITVKYTERRQPLYRFITTICAIIGGTFTVAGILDSCIFTASEAWKKIQLGKMH [ERGIC1]”, in the series with HeLa Kyoto [1], the “solubility in G1/S (log2)” value worked out at 0.18. The figures for the melting temperature in the series with HeLa Kyoto [2] (cell cycle stage: G1/S) and with HeLa Kyoto [2] (cell cycle stage: mitosis) were 55.2 °C and 55.6 °C, respectively. Besides, in the series with HeLa Kyoto [3], the “solubility change mitosis (log2)” value is -0.178. Further, the figures for the thermal stability score in the series on HeLa Kyoto [4] (setting [5]) and in the series with HeLa Kyoto [4] (cell cycle stage: mitosis) were -0.418 and -0.585, respectively.

Take “MPFLELDTNLPANRVPAGLEKRLCAAAASILGKPADRVNVTVRPGLAMALSGSTEPCAQLSISSIGVVGTAEDNRSHSAHFFEFLTKELALGQDRILIRFFPLESWQIGKIGTVMTFL [DDT]”: in the series on HeLa Kyoto [1], the “solubility in G1/S (log2)” value is 0.57. For the same sequence, the melting temperature with HeLa Kyoto [2] (cell cycle stage: G1/S) was 56.1 °C; in the series on HeLa Kyoto [2] (cell cycle stage: mitosis) it was 57.4 °C. Also, the “solubility change mitosis (log2)” value in the series on HeLa Kyoto [3] is -0.0844. Also, the thermal stability score is -2.25 with HeLa Kyoto [4] (setting [5]) and -2.27 with HeLa Kyoto [4] (cell cycle stage: mitosis).

Regarding “MPFPFGKSHKSPADIVKNLKESMAVLEKQDISDKKAEKATEEVSKNLVAMKEILYGTNEKEPQTEAVAQLAQELYNSGLLSTLVADLQLIDFEGKKDVAQIFNNILRRQIGTRTPTVEYICTQQNILFMLLKGYESPEIALNCGIMLRECIRHEPLAKIILWSEQFYDFFRYVEMSTFDIASDAFATFKDLLTRHKLLSAEFLEQHYDRFFSEYEKLLHSENYVTKRQSLKLLGELLLDRHNFTIMTKYISKPENLKLMMNLLRDKSRNIQFEAFHVFKVFVANPNKTQPILDILLKNQAKLIEFLSKFQNDRTEDEQFNDEKTYLVKQIRDLKRPAQQEA [CAB39]”, in the series on HeLa Kyoto [1], the “solubility in G1/S (log2)” value was 0.0309. Moreover, the melting temperature turned out to be 54.3 °C in the series with HeLa Kyoto [2] (cell cycle stage: G1/S) and 55.4 °C in the series on HeLa Kyoto [2] (cell cycle stage: mitosis). In addition, the “solubility change mitosis (log2)” value in the series on HeLa Kyoto [3] was -0.178. Also, the thermal stability score in the series with HeLa Kyoto [4] (setting [5]) is 0.362; in the series on HeLa Kyoto [4] (cell cycle stage: mitosis), 2.14.

In the case of “MPGGLLLGDVAPNFEANTTVGRIRFHDFLGDSWGILFSHPRDFTPVCTTELGRAAKLAPEFAKRNVKLIALSIDSVEDHLAWSKDINAYNCEEPTEKLPFPIIDDRNRELAILLGMLDPAEKDEKGMPVTARVVFVFGPDKKLKLSILYPATTGRNFDEILRVVISLQLTAEKRVATPVDWKDGDSVMVLPTIPEEEAKKLFPKGVFTKELPSGKKYLRYTPQP [PRDX6]”, the “solubility in G1/S (log2)” value in the series with HeLa Kyoto [1] came to 0.444. Further, the melting temperature in the series on HeLa Kyoto [2] (cell cycle stage: G1/S) turned out to be 53.9 °C; in the series with HeLa Kyoto [2] (cell cycle stage: mitosis), 54.5 °C. Also, in the series on HeLa Kyoto [3], the “solubility change mitosis (log2)” value came to 0.118. In addition, the thermal stability score was -1.5 in the series with HeLa Kyoto [4] (setting [5]) and -3.41 in the series with HeLa Kyoto [4] (cell cycle stage: mitosis).

Regarding “MPGHLQEGFGCVVTNRFDQLFDDESDPFEVLKAAENKKKEAGGGGVGGPGAKSAAQAAAQTNSNAAGKQLRKESQKDRKNPLPPSVGVVDKKEETQPPVALKKEGIRRVGRRPDQQLQGEGKIIDRRPERRPPRERRFEKPLEEKGEGGEFSVDRPIIDRPIRGRGGLGRGRGGRGRGMGRGDGFDSRGKREFDRHSGSDRSSFSHYSGLKHEDKRGGSGSHNWGTVKDELTESPKYIQKQISYNYSDLDQSNVTEETPEGEEHHPVADTENKENEVEEVKEEGPKEMTLDEWKAIQNKDRAKVEFNIRKPNEGADGQWKKGFVLHKSKSEEAHAEDSVMDHHFRKPANDITSQLEINFGDLGRPGRGGRGGRGGRGRGGRPNRGSRTDKSSASAPDVDDPEAFPALA [SERBP1]”, in the series on HeLa Kyoto [1], the “solubility in G1/S (log2)” value is -0.123. For the same sequence, in the series on HeLa Kyoto [2] (cell cycle stage: G1/S), the melting temperature turned out to be 58.8 °C. Also, the “solubility change mitosis (log2)” value in the series with HeLa Kyoto [3] was 0.395. For the same sequence, the thermal stability score in the series with HeLa Kyoto [4] (setting [5]) is -1.78; in the series on HeLa Kyoto [4] (cell cycle stage: mitosis), -8.72.

In the case of “MPGMVLFGRRWAIASDDLVFPGFFELVVRVLWWIGILTLYLMHRGKLDCAGGALLSSYLIVLMILLAVVICTVSAIMCVSMRGTICNPGPRKSMSKLLYIRLALFFPEMVWASLGAAWVADGVQCDRTVVNGIIATVVVSWIIIAATVVSIIIVFDPLGGKMAPYSSAGPSHLDSHDSSQLLNGLKTAATSVWETRIKLLCCCIGKDDHTRVAFSSTAELFSTYFSDTDLVPSDIAAGLALLHQQQDNIRNNQEPAQVVCHAPGSSQEADLDAELENCHHYMQFAAAAYGWPLYIYRNPLTGLCRIGGDCCRSRTTDYDLVGGDQLNCHFGSILHTTGLQYRDFIHVSFHDKVYELPFLVALDHRKESVVVAVRGTMSLQDVLTDLSAESEVLDVECEVQDRLAHKGISQAARYVYQRLINDGILSQAFSIAPEYRLVIVGHSLGGGAAALLATMLRAAYPQVRCYAFSPPRGLWSKALQEYSQSFIVSLVLGKDVIPRLSVTNLEDLKRRILRVVAHCNKPKYKILLHGLWYELFGGNPNNLPTELDGGDQEVLTQPLLGEQSLLTRWSPAYSFSSDSPLDSSPKYPPLYPPGRIIHLQEEGASGRFGCCSAAHYSAKWSHEAEFSKILIGPKMLTDHMPDILMRALDSVVSDRAACVSCPAQGVSSVDVA [DAGLB]”, the “solubility in G1/S (log2)” value in the series on HeLa Kyoto [1] was -0.195. The melting temperature with HeLa Kyoto [2] (cell cycle stage: G1/S) came to 54.6 °C; with HeLa Kyoto [2] (cell cycle stage: mitosis) it was 53.1 °C. Besides, the “solubility change mitosis (log2)” value in the series with HeLa Kyoto [3] is -0.129. Further, the thermal stability score with HeLa Kyoto [4] (setting [5]) was -0.332; with HeLa Kyoto [4] (cell cycle stage: mitosis) it was -1.16.
